Bounds are passed on as bounds.

The target in one assay is T1, murine IL-11 (mouse, UniProt P47873 22-199).
T1 sequence: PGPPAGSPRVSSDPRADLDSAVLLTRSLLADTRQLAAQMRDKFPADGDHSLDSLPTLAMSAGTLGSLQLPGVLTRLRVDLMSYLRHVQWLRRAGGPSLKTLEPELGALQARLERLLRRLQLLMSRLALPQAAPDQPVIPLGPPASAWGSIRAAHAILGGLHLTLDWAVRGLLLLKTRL
Put plainly: cell-based or functional assay.

Another assay concerns the target T2, human IL-11 (human, UniProt P20809 22-199).
T2 sequence: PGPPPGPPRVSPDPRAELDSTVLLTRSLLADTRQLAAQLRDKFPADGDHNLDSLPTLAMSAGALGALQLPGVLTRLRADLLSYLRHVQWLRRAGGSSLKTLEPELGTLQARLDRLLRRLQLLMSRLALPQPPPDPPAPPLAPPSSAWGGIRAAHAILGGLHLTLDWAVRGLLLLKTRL
Put plainly: cell-based or functional assay.

B1: TPP-31304 (antibody, IgG4, V domains shown)
VH: EVQLLESGGGLVQPGGSLRLSCAASGFTFSHYDMNWLRQAPGKGLEWVGVISYDASNKFYADFVKGRFTISRDNSKNTLYLQMNSLRAEDTAVYYCARTPGSHFDYWGQGTLVTVSS
VL: QSVLTQPPSASGTPGQRVTISCSGSSSNIGNNAVNWYQQLPGTAPKLLIYYDDLLPSGVPDRFSGSKSGTSASLAISGLRSEDEADYYCSAWDDSLNGVVFGGGTKLTVL
For B1, the “IC50, RGA 1” value came out at 42 nM with murine IL-11 and 104 nM with human IL-11. The “IC50, RGA 2” value with murine IL-11 was 21 nM; in the assay with human IL-11 it was 35 nM.

B2: TPP-31279 (antibody, IgG4, V domains shown)
VH: EVQLLESGGGLVQPGGSLRLSCAASGFTFSHYDMNWLRQAPGKGLEWVGVISYDGSNKFYADFVKGRFTISRDNSKNTLYLQMNSLRAEDTAVYYCARTPGSHFDYWGQGTLVTVSS
VL: QSVLTQPPSASGTPGQRVTISCSGSSSNIGNNAVYWYQQLPGTAPKLLIYYDDLLPSGVPDRFSGSKSGTSASLAISGLRSEDEADYYCSAWDDSLNGVVFGGGTKLTVL
On to B2, for which, in the assay with murine IL-11, the “IC50, RGA 1” value was found to be 196 nM and the “IC50, RGA 2” value was more than 500 nM. In addition, in the assay with human IL-11, the “IC50, RGA 1” value is more than 500 nM and the “IC50, RGA 2” value was more than 500 nM.

B3: TPP-31291 (antibody, IgG4, V domains shown)
VH: EVQLLESGGGLVQPGGSLRLSCAASGFTFSHYGMNWLRQAPGKGLEWVGVISYDGSNKFYADFVKGRFTISRDNSKNTLYLQMNSLRAEDTAVYYCARTPGSHFDYWGQGTLVTVSS
VL: QSVLTQPPSASGTPGQRVTISCSGSSSNIGNNAVNWYQQLPGTAPKLLIYYDDLLPSGVPDRFSGSKSGTSASLAISGLRSEDEADYYCSAWDDSLNGVVFGGGTKLTVL
Take B3: the “IC50, RGA 1” value with murine IL-11 and with human IL-11 was more than 500 nM throughout.

B4: TPP-31306 (antibody, IgG4, V domains shown)
VH: EVQLLESGGGLVQPGGSLRLSCAASGFTFSHYDMNWLRQAPGKGLEWVGVISYDASNKFYADFVKGRFTISRDNSKNTLYLQMNSLRAEDTAVYYCARTPGSHFDYWGQGTLVTVSS
VL: QSVLTQPPSASGTPGQRVTISCSGSSSNIGNNAVNWYQQLPGTAPKLLIYYDDLLPSGVPDRFSGSKSGTSASLAISGLRSEDEADYYCSAWDDSLSGVVFGGGTKLTVL
Take B4: in the assay with murine IL-11, the “IC50, RGA 1” value stood at 57 nM and the “IC50, RGA 2” value was determined as 60 nM. For the same molecule, in the assay with human IL-11, the “IC50, RGA 1” value stood at 126 nM and the “IC50, RGA 2” value came to 23 nM.

B5: TPP-31283 (antibody, IgG4, V domains shown)
VH: EVQLLESGGGLVQPGGSLRLSCAASGFTFSHYDMNWLRQAPGKGLEWVGVISYDGSNKFYADFVKGRFTISRDNSKNTLYLQMNSLRAEDTAVYYCARTPGSHFDYWGQGTLVTVSS
VL: QSVLTQPPSASGTPGQRVTISCSGSSSNIGNNAVNWYQQLPGTAPKLLIYYDDQLPSGVPDRFSGSKSGTSASLAISGLRSEDEADYYCSAWDDSLNGVVFGGGTKLTVL
As for B5, the entries for the “IC50, RGA 1” value in the assay with murine IL-11 and in the assay with human IL-11 were 247 nM and more than 500 nM, respectively. The figures for the “IC50, RGA 2” value with murine IL-11 and with human IL-11 were 118 nM and 200 nM, respectively.

B6: TPP-31280 (antibody, IgG4, V domains shown)
VH: EVQLLESGGGLVQPGGSLRLSCAASGFTFSHYDMNWLRQAPGKGLEWVGVISYDGSNKFYADFVKGRFTISRDNSKNTLYLQMNSLRAEDTAVYYCARTPGSHFDYWGQGTLVTVSS
VL: QSVLTQPPSASGTPGQRVTISCSGSSSNIGNNAVNWYQQLPGTAPKLLIYRDDLLPSGVPDRFSGSKSGTSASLAISGLRSEDEADYYCSAWDDSLNGVVFGGGTKLTVL
For the molecule B6, the “IC50, RGA 1” value with murine IL-11 and in the assay with human IL-11 was more than 500 nM throughout.

B7: TPP-31311 (antibody, IgG4, V domains shown)
VH: EVQLLESGGGLVQPGGSLRLSCAASGFTFSHYDMNWLRQAPGKGLEWVGVISYDSSNKFYADFVKGRFTISRDNSKNTLYLQMNSLRAEDTAVYYCARTPGSHFDYWGQGTLVTVSS
VL: QSVLTQPPSASGTPGQRVTISCSGSSSNIGNNAVNWYQQLPGTAPKLLIYYDDLLPSGVPDRFSGSKSGTSASLAISGLRSEDEADYYCSAWDDSLNAVVFGGGTKLTVL
As for B7, in the assay with murine IL-11, the “IC50, RGA 1” value turned out to be 76 nM and the “IC50, RGA 2” value is 127 nM. Further, in the assay with human IL-11, the “IC50, RGA 1” value was more than 500 nM and the “IC50, RGA 2” value came to 34 nM.

B8: TPP-31310 (antibody, IgG4, V domains shown)
VH: EVQLLESGGGLVQPGGSLRLSCAASGFTFSHYDMNWLRQAPGKGLEWVGVISYDSSNKFYADFVKGRFTISRDNSKNTLYLQMNSLRAEDTAVYYCARTPGSHFDYWGQGTLVTVSS
VL: QSVLTQPPSASGTPGQRVTISCSGSSSNIGNNAVNWYQQLPGTAPKLLIYYDDLLPSGVPDRFSGSKSGTSASLAISGLRSEDEADYYCSAWDDSLSGVVFGGGTKLTVL
Turning to B8, the “IC50, RGA 1” value is 144 nM in the assay with murine IL-11 and more than 500 nM in the assay with human IL-11. Also, the “IC50, RGA 2” value with murine IL-11 was 75 nM; in the assay with human IL-11, more than 500 nM.

B9: TPP-31282 (antibody, IgG4, V domains shown)
VH: EVQLLESGGGLVQPGGSLRLSCAASGFTFSHYDMNWLRQAPGKGLEWVGVISYDGSNKFYADFVKGRFTISRDNSKNTLYLQMNSLRAEDTAVYYCARTPGSHFDYWGQGTLVTVSS
VL: QSVLTQPPSASGTPGQRVTISCSGSSSNIGNNAVNWYQQLPGTAPKLLIYYDNLLPSGVPDRFSGSKSGTSASLAISGLRSEDEADYYCSAWDDSLNGVVFGGGTKLTVL
Consider B9, for which, in the assay with murine IL-11, the “IC50, RGA 1” value was 70 nM and the “IC50, RGA 2” value was 28 nM. In the assay with human IL-11, the “IC50, RGA 1” value was 345 nM and the “IC50, RGA 2” value turned out to be 287 nM.

B10: TPP-31309 (antibody, IgG4, V domains shown)
VH: EVQLLESGGGLVQPGGSLRLSCAASGFTFSHYDMNWLRQAPGKGLEWVGVISYDSSNKFYADFVKGRFTISRDNSKNTLYLQMNSLRAEDTAVYYCARTPGSHFDYWGQGTLVTVSS
VL: QSVLTQPPSASGTPGQRVTISCSGSSSNIGNNAVNWYQQLPGTAPKLLIYYDDLLPSGVPDRFSGSKSGTSASLAISGLRSEDEADYYCSAWDDSLQGVVFGGGTKLTVL
In the case of B10, the “IC50, RGA 1” value with murine IL-11 stood at 108 nM; in the assay with human IL-11, 261 nM. The “IC50, RGA 2” value with murine IL-11 amounted to 68 nM; with human IL-11 it was 122 nM.

B11: TPP-31305 (antibody, IgG4, V domains shown)
VH: EVQLLESGGGLVQPGGSLRLSCAASGFTFSHYDMNWLRQAPGKGLEWVGVISYDASNKFYADFVKGRFTISRDNSKNTLYLQMNSLRAEDTAVYYCARTPGSHFDYWGQGTLVTVSS
VL: QSVLTQPPSASGTPGQRVTISCSGSSSNIGNNAVNWYQQLPGTAPKLLIYYDDLLPSGVPDRFSGSKSGTSASLAISGLRSEDEADYYCSAWDDSLQGVVFGGGTKLTVL
With B11, the “IC50, RGA 1” value with murine IL-11 is 30 nM; in the assay with human IL-11, 182 nM. Also, the results for the “IC50, RGA 2” value in the assay with murine IL-11 and in the assay with human IL-11 were 29 nM and 47 nM, respectively.

B12: TPP-31290 (antibody, IgG4, V domains shown)
VH: EVQLLESGGGLVQPGGSLRLSCAASGFTFSSYDMNWLRQAPGKGLEWVGVISYDGSNKFYADFVKGRFTISRDNSKNTLYLQMNSLRAEDTAVYYCARTPGSHFDYWGQGTLVTVSS
VL: QSVLTQPPSASGTPGQRVTISCSGSSSNIGNNAVNWYQQLPGTAPKLLIYYDDLLPSGVPDRFSGSKSGTSASLAISGLRSEDEADYYCSAWDDSLNGVVFGGGTKLTVL
Take B12: the “IC50, RGA 1” value with murine IL-11 and with human IL-11 was more than 500 nM throughout.

B13: TPP-31308 (antibody, IgG4, V domains shown)
VH: EVQLLESGGGLVQPGGSLRLSCAASGFTFSHYDMNWLRQAPGKGLEWVGVISYDSSNKFYADFVKGRFTISRDNSKNTLYLQMNSLRAEDTAVYYCARTPGSHFDYWGQGTLVTVSS
VL: QSVLTQPPSASGTPGQRVTISCSGSSSNIGNNAVNWYQQLPGTAPKLLIYYDDLLPSGVPDRFSGSKSGTSASLAISGLRSEDEADYYCSAWDDSLNGVVFGGGTKLTVL
Consider B13, for which, in the assay with murine IL-11, the “IC50, RGA 1” value was determined as 63 nM and the “IC50, RGA 2” value stood at 170 nM. Also, in the assay with human IL-11, the “IC50, RGA 1” value is more than 500 nM and the “IC50, RGA 2” value is more than 500 nM.

B14: TPP-31281 (antibody, IgG4, V domains shown)
VH: EVQLLESGGGLVQPGGSLRLSCAASGFTFSHYDMNWLRQAPGKGLEWVGVISYDGSNKFYADFVKGRFTISRDNSKNTLYLQMNSLRAEDTAVYYCARTPGSHFDYWGQGTLVTVSS
VL: QSVLTQPPSASGTPGQRVTISCSGSSSNIGNNAVNWYQQLPGTAPKLLIYYNDLLPSGVPDRFSGSKSGTSASLAISGLRSEDEADYYCSAWDDSLNGVVFGGGTKLTVL
As for B14, the “IC50, RGA 1” value with murine IL-11 and with human IL-11 was more than 500 nM in each case.

B15: TPP-31307 (antibody, IgG4, V domains shown)
VH: EVQLLESGGGLVQPGGSLRLSCAASGFTFSHYDMNWLRQAPGKGLEWVGVISYDASNKFYADFVKGRFTISRDNSKNTLYLQMNSLRAEDTAVYYCARTPGSHFDYWGQGTLVTVSS
VL: QSVLTQPPSASGTPGQRVTISCSGSSSNIGNNAVNWYQQLPGTAPKLLIYYDDLLPSGVPDRFSGSKSGTSASLAISGLRSEDEADYYCSAWDDSLNAVVFGGGTKLTVL
In the case of B15, the entries for the “IC50, RGA 1” value with murine IL-11 and with human IL-11 were 45 nM and more than 500 nM, respectively. For the same molecule, the “IC50, RGA 2” value was 37 nM with murine IL-11 and 126 nM with human IL-11.
